From the supplement of paper PMC7877785
± gives the uncertainty stated by the source.

Assay: self-splicing fitness, log relative to wild type (ln ratio); higher = more splicing; Tetrahymena group I intron in knt gene, E. coli kanamycin selection, DiMSum; sequences stand for … in CUCUCU…GGAGGGAAAAGUUAUCAGGCAUGCACCUGGUAGCUAGUCUUUAAACCAAUAGAUUGCAUCGGUUUAAAAGGCAAGACCGUCAAAUUGCGGGAAAGGGGUCAACAGCCGUUCAGUACCAAGUCUCAGGGGAAACUUUGAGAUGGCCUUGCAAAGGGUAUGGUAAUAAGCUGACGGACAUGGUCCUAACCACGCAGCCAAGUCCUAAGUCAACAGAUCUUCUGUUGAUAUGGAUGCAGUUCACAGACUAAAUGUCGGUCGGGGAAGAUGUAUUCUUCUCAUAAGAUAUAGUCGGACCUCUCCUUAAUGGGAGCUAGCGGAUGAAGUGAUGCAACACUGGAGCCGCUGGGAACUAAUUUGUAUGCGAAAGUAUAUUGAUUAGUUUUGGAGUACUCGUGGUCG
Outline: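 Pooled colonies went to amplicon sequencing on an Illumina HiSeq 2500 after six replicate transformations. The plates were LB agar with 100 μg/mL carbenicillin, 50 μM IPTG and 0.2% rhamnose, with or without 25 μg/mL kanamycin, incubated overnight at 37°C or 30°C. The E. coli BL21(DE3) library had all eight P1ex-region intron nucleotides randomised, the intron placed in the knt kanamycin-resistance gene on pET-22b(+). DiMSum fitness is the error-weighted combination of replicate fold changes, kanamycin against none, normalised to wild type.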

Sequence | self-splicing fitness (ln) (30 °C) | self-splicing fitness (ln) (37 °C)
UCGUAGCAAUAUUACGGACU | -3.21 ± 0.31 | -0.974 ± 0.21
AACAAGCAAUAUUACGCCGG | -0.692 ± 0.075 | -0.963 ± 0.12
GUAAAGCAAUAUUACGCGGC | -2.96 ± 0.21 | -0.672 ± 0.18
UACAAGCAAUAUUACGCGGG | -2.43 ± 0.086 | -1.25 ± 0.099
UGACAGCAAUAUUACGACGC | -1.83 ± 0.13 | -1.25 ± 0.19
CCAAAGCAAUAUUACGUUGG | -4.54 ± 0.27 | -3.32 ± 0.29
CGUUAGCAAUAUUACGUGCA | -1.38 ± 0.11 | -0.0413 ± 0.11
ACUCAGCAAUAUUACGUGUC | -3.74 ± 0.16 | -2.21 ± 0.17
UAUCAGCAAUAUUACGUCAC | -4 ± 0.31 | -1.83 ± 0.3
ACGAAGCAAUAUUACGGCGU | -2.47 ± 0.09 | -1.74 ± 0.11
GCACAGCAAUAUUACGUCGC | -3.17 ± 0.13 | -1.67 ± 0.12
UCCUAGCAAUAUUACGCUGU | -2.52 ± 0.22 | -2.23 ± 0.27
CAUUAGCAAUAUUACGGGAU | -3.2 ± 0.19 | -2.92 ± 0.23
GGACAGCAAUAUUACGGGUA | -2.33 ± 0.11 | -1.67 ± 0.093
GCGCAGCAAUAUUACGCGGG | -2.93 ± 0.1 | -1.37 ± 0.097
CUAGAGCAAUAUUACGGCAA | -3.09 ± 0.22 | -2.96 ± 0.34
AGGGAGCAAUAUUACGUUAU | -3.84 ± 0.34 | -2.94 ± 0.25
GAACAGCAAUAUUACGAGAC | -2.13 ± 0.22 | -1.21 ± 0.18
GGGAAGCAAUAUUACGCAGU | -2 ± 0.13 | 0.176 ± 0.14

Sequence | self-splicing fitness (ln) (30 °C) | self-splicing fitness (ln) (37 °C)
ACCUAGCAAUAUUACGUAAU | -1.28 ± 0.049 | -0.573 ± 0.066
AAAAAGCAAUAUUACGGCUC | -0.28 ± 0.076 | 0.157 ± 0.098
UUUCAGCAAUAUUACGUGUU | -3.42 ± 0.13 | -2.87 ± 0.14
CGUAAGCAAUAUUACGUCUC | -3.77 ± 0.28 | -1.95 ± 0.17
UACCAGCAAUAUUACGUUAU | -2.97 ± 0.12 | -2.26 ± 0.14
CAUAAGCAAUAUUACGAUGA | -2.58 ± 0.14 | -0.929 ± 0.13
GAUUAGCAAUAUUACGAAAU | -2.4 ± 0.22 | 1.2 ± 0.2
GAUUAGCAAUAUUACGGCUA | -0.867 ± 0.099 | -0.414 ± 0.1
CUGUAGCAAUAUUACGUGAU | -1.56 ± 0.085 | -0.44 ± 0.11
UCAAAGCAAUAUUACGCCCA | -1.32 ± 0.14 | -0.49 ± 0.16
CUGCAGCAAUAUUACGUUCG | -0.733 ± 0.074 | -0.62 ± 0.095
CGCGAGCAAUAUUACGUUUU | -4.56 ± 0.46 | -2.17 ± 0.2
GUUAAGCAAUAUUACGUGCU | -1.6 ± 0.087 | -0.714 ± 0.11
GCAAAGCAAUAUUACGUGAG | -1.11 ± 0.046 | -0.539 ± 0.067
CUCCAGCAAUAUUACGAAGU | -3.59 ± 0.16 | -2.98 ± 0.26
AACUAGCAAUAUUACGCUGA | -2.18 ± 0.14 | -1.91 ± 0.13
CAUUAGCAAUAUUACGACAU | -3.364 ± 0.024 | -1.97 ± 0.036
UGCCAGCAAUAUUACGUGGC | -3.24 ± 0.19 | -3.19 ± 0.25
